B1: Neutrophil cytosol factor 1 (Homo sapiens), P14598 (parent)
chain: MGDTFIRHIALLGFEKRFVPSQHYVYMFLVKWQDLSEKVVYRRFTEIYEFHKTLKEMFPIEAGAINPENRIIPHLPAPKWFDGQRAAENRQGTLTEYCSTLMSLPTKISRCPHLLDFFKVRPDDLKLPTDNQTKKPETYLMPKDGKSTATDITGPIILQTYRAIANYEKTSGSEMALSTGDVVEVVEKSESGWWFCQMKAKRGWIPASFLEPLDSPDETEDPEPNYAGEPYVAIKAYTAVEGDEVSLLEGEAVEVIHKLLDGWWVIRKDDVTGYFPSMYLQKSGQDVSQAQRQIKRGAPPRRSSIRNAHSIHQRSRKRLSQDAYRRNSVRFLQQRRRQARPGPQSPGSPLEEERQTQRSKPQPAVPPRPSADLILNRCSESTKRKLASAV

Variants of: B1
Settings: with ncf2_human NCF2, P19878
Sequence of ncf2_human NCF2, P19878 (P19878 whole entry): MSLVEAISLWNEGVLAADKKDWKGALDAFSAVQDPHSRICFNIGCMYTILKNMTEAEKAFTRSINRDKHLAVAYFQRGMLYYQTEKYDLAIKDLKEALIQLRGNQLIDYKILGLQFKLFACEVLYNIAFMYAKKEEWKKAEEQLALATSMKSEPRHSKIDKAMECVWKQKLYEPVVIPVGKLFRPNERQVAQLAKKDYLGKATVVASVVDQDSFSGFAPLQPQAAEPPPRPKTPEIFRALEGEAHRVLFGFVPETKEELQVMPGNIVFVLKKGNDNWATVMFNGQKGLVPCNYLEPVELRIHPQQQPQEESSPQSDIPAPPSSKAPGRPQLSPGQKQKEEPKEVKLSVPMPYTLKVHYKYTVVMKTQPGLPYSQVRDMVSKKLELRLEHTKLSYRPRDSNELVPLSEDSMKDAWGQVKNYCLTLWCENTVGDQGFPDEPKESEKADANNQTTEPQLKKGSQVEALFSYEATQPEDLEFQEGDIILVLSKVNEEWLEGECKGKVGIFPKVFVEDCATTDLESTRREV

Row | Variant | effect of a mutation on the interaction
1 | P363A | decreasing interaction
2 | K383E | decreasing interaction
3 | R368A | decreasing interaction
4 | K385E | decreasing interaction
5 | P366A | disrupting interaction

— IntAct's records for PubMed 19129478
